Columns and labels:
16 mer peptide 41 = assay: 16 mer peptide ELISA
16 mer peptide 40 = target: T1, 16 mer peptide 40; assay: 16 mer peptide ELISA
T1 sequence (peptide, N-terminal biotin; C-terminal amide): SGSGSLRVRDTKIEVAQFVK

16 mer peptide 41, sequence (peptide, as listed by the source limits assumed): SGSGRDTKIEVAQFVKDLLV

B1: monoclonal antibody 6A1 (antibody, IgG1, V domains shown)
VH: EIQLQQSVAELVRPGASVRLSCTASGFYIKDTYMHWVIQRPEQGLEWIGTIDPANGNTKYVPKFQGKATITADTSSNTAYLRLSSLTSEDTAIYYCARSIYDDYHYDDYYAMDYWGQGTSVTVSS
VL: DVLMTQTPLSLPVSLGDQASISCRSSQNIVHINGNTYLEWYLQKPGQSPKLLIYKISDRFSGVPDRFSGSGSGTDFTLKISRVEAEDLGVYYCFQGSHVPWTFGGGTKLEIK
- absorbance at 490 nm (16 mer peptide 41): 0.058 A490
- absorbance at 490 nm (16 mer peptide 40): 0.06 A490

Reference: patent publication US20110243928A1
